Values joined by “and” are separate entries in the source; they are usually repeats but may differ in a detail not shown here. Equal values may be shown once.

The values that follow come from patent US20250283871A1, “COMPOSITIONS AND METHODS FOR MODULATING THE INTERACTION BETWEEN SS18-SSX FUSION ONCOPROTEIN AND NUCLEOSOMES” (Dana-Farber Cancer Institute, Inc., priority 2020, published 2025).

Assay [1] deals with cellular chromatin (endogenous nucleosomes; core histones H2A, H2B, H3, H4) (human) (UniProt P0C0S8). Kind of assay: differential salt extraction, immunoblot. (In general: A western blot detects proteins with antibodies after separation by electrophoresis.)
For assay [2], the target named is recombinant H2A K119Ub mononucleosomes (UniProt P04908). Kind of assay: AlphaLISA; 95% CI 2.3-9.1.
In assay [3] the target is recombinant, unmodified mononucleosomes (UniProt P04908). Kind of assay: AlphaLISA; 95% CI 9.1-53.3. (In general: Alpha assays give light when donor and acceptor beads are brought close together.)
Assay [4] addresses mammalian mononucleosomes (HEK293T) carrying H2A(12to17)K13ac1 (mammalian (HEK293T)) (UniProt P0C0S8). Kind of assay: MBP-SSX1 78aa pull-down, targeted histone MS.
The target in assay [5] is mammalian mononucleosomes (HEK293T) carrying H2A(12to17)K15ac1 (mammalian (HEK293T)) (UniProt P0C0S8). Kind of assay: MBP-SSX1 78aa pull-down, targeted histone MS.
Assay [6] concerns the target mammalian mononucleosomes (HEK293T) carrying H2A(12to17)ac0 (mammalian (HEK293T)) (UniProt P0C0S8). Kind of assay: MBP-SSX1 78aa pull-down, targeted histone MS.
Assay [7] concerns the target mammalian mononucleosomes (HEK293T) carrying H2A(4to11)K5ac1 (mammalian (HEK293T)) (UniProt P0C0S8). Kind of assay: MBP-SSX1 78aa pull-down, targeted histone MS.
For assay [8], the target named is mammalian mononucleosomes (HEK293T) carrying H2A(4to11)K5ac1K9ac1 (mammalian (HEK293T)) (UniProt P0C0S8). Kind of assay: MBP-SSX1 78aa pull-down, targeted histone MS.
Assay [9] has as its target mammalian mononucleosomes (HEK293T) carrying H2A(4to11)K9ac1 (mammalian (HEK293T)) (UniProt P0C0S8). Kind of assay: MBP-SSX1 78aa pull-down, targeted histone MS.
Assay [10] addresses mammalian mononucleosomes (HEK293T) carrying H2A(4to11)ac0 (mammalian (HEK293T)) (UniProt P0C0S8). Kind of assay: MBP-SSX1 78aa pull-down, targeted histone MS.
Assay [11] has as its target mammalian mononucleosomes (HEK293T) carrying H2AZ(1to19)K4ac1 (mammalian (HEK293T)) (UniProt P0C0S5). Kind of assay: MBP-SSX1 78aa pull-down, targeted histone MS.
Assay [12] concerns the target mammalian mononucleosomes (HEK293T) carrying H2AZ(1to19)ac0 (mammalian (HEK293T)) (UniProt P0C0S5). Kind of assay: MBP-SSX1 78aa pull-down, targeted histone MS.
Assay [13] concerns the target mammalian mononucleosomes (HEK293T) carrying H2B(1to29)K5ac1 (mammalian (HEK293T)) (UniProt P62807). Kind of assay: MBP-SSX1 78aa pull-down, targeted histone MS.
Assay [14] deals with mammalian mononucleosomes (HEK293T) carrying H3K4ac1 (mammalian (HEK293T)) (UniProt P68431). Kind of assay: MBP-SSX1 78aa pull-down, targeted histone MS.
Assay [15] has as its target mammalian mononucleosomes (HEK293T) carrying H3K4me1 (mammalian (HEK293T)) (UniProt P68431). Kind of assay: MBP-SSX1 78aa pull-down, targeted histone MS.
Assay [16] deals with mammalian mononucleosomes (HEK293T) carrying H3K4me2 (mammalian (HEK293T)) (UniProt P68431). Kind of assay: MBP-SSX1 78aa pull-down, targeted histone MS.
The target in assay [17] is mammalian mononucleosomes (HEK293T) carrying H3K4me3 (mammalian (HEK293T)) (UniProt P68431). Kind of assay: MBP-SSX1 78aa pull-down, targeted histone MS.
The target of assay [18] is mammalian mononucleosomes (HEK293T) carrying H3K9me1S10ph1K14ac1 (mammalian (HEK293T)) (UniProt P68431). Kind of assay: MBP-SSX1 78aa pull-down, targeted histone MS.
Assay [19] deals with mammalian mononucleosomes (HEK293T) carrying H3K9me2S10ph1K14ac0 (mammalian (HEK293T)) (UniProt P68431). Kind of assay: MBP-SSX1 78aa pull-down, targeted histone MS.
In assay [20] the target is mammalian mononucleosomes (HEK293T) carrying H3K9me2S10ph1K14ac1 (mammalian (HEK293T)) (UniProt P68431). Kind of assay: MBP-SSX1 78aa pull-down, targeted histone MS.
The target of assay [21] is mammalian mononucleosomes (HEK293T) carrying H3K9me3S10ph1K14ac0 (mammalian (HEK293T)) (UniProt P68431). Kind of assay: MBP-SSX1 78aa pull-down, targeted histone MS.
Assay [22] addresses mammalian mononucleosomes (HEK293T) carrying H4(20to23)K20me0 (mammalian (HEK293T)) (UniProt P62805). Kind of assay: MBP-SSX1 78aa pull-down, targeted histone MS.
Assay [23] addresses mammalian mononucleosomes (HEK293T) carrying H4(20to23)K20me1 (mammalian (HEK293T)) (UniProt P62805). Kind of assay: MBP-SSX1 78aa pull-down, targeted histone MS.
The target of assay [24] is mammalian mononucleosomes (HEK293T) carrying H4(20to23)K20me2 (mammalian (HEK293T)) (UniProt P62805). Kind of assay: MBP-SSX1 78aa pull-down, targeted histone MS.
The target of assay [25] is mammalian mononucleosomes (HEK293T) carrying H4(20to23)K20me3 (mammalian (HEK293T)) (UniProt P62805). Kind of assay: MBP-SSX1 78aa pull-down, targeted histone MS.
Assay [26] concerns the target mammalian mononucleosomes (HEK293T) carrying H4(4to17)K12ac1K16ac1me0 (mammalian (HEK293T)) (UniProt P62805). Kind of assay: MBP-SSX1 78aa pull-down, targeted histone MS.
For assay [27], the target named is mammalian mononucleosomes (HEK293T) carrying H4(4to17)K12ac1me0 (mammalian (HEK293T)) (UniProt P62805). Kind of assay: MBP-SSX1 78aa pull-down, targeted histone MS.
Assay [28] addresses mammalian mononucleosomes (HEK293T) carrying H4(4to17)K16ac1me0 (mammalian (HEK293T)) (UniProt P62805). Kind of assay: MBP-SSX1 78aa pull-down, targeted histone MS.
Assay [29] addresses mammalian mononucleosomes (HEK293T) carrying H4(4to17)K5ac1K16ac1me0 (mammalian (HEK293T)) (UniProt P62805). Kind of assay: MBP-SSX1 78aa pull-down, targeted histone MS.
In assay [30] the target is mammalian mononucleosomes (HEK293T) carrying H4(4to17)K5ac1K8ac1K12ac1K16ac1me0 (mammalian (HEK293T)) (UniProt P62805). Kind of assay: MBP-SSX1 78aa pull-down, targeted histone MS.
The target in assay [31] is mammalian mononucleosomes (HEK293T) carrying H4(4to17)K5ac1K8ac1K12ac1me0 (mammalian (HEK293T)) (UniProt P62805). Kind of assay: MBP-SSX1 78aa pull-down, targeted histone MS.
Assay [32] has as its target mammalian mononucleosomes (HEK293T) carrying H4(4to17)K5ac1K8ac1K16ac1me0 (mammalian (HEK293T)) (UniProt P62805). Kind of assay: MBP-SSX1 78aa pull-down, targeted histone MS.
Assay [33] has as its target mammalian mononucleosomes (HEK293T) carrying H4(4to17)K5ac1K8ac1me0 (mammalian (HEK293T)) (UniProt P62805). Kind of assay: MBP-SSX1 78aa pull-down, targeted histone MS.
Assay [34] concerns the target mammalian mononucleosomes (HEK293T) carrying H4(4to17)K5ac1me0 (mammalian (HEK293T)) (UniProt P62805). Kind of assay: MBP-SSX1 78aa pull-down, targeted histone MS.
Assay [35] concerns the target mammalian mononucleosomes (HEK293T) carrying H4(4to17)K8ac1K12ac1K16ac1me0 (mammalian (HEK293T)) (UniProt P62805). Kind of assay: MBP-SSX1 78aa pull-down, targeted histone MS.
Assay [36] addresses mammalian mononucleosomes (HEK293T) carrying H4(4to17)K8ac1K12ac1me0 (mammalian (HEK293T)) (UniProt P62805). Kind of assay: MBP-SSX1 78aa pull-down, targeted histone MS.
For assay [37], the target named is mammalian mononucleosomes (HEK293T) carrying H4(4to17)ac0me0 (mammalian (HEK293T)) (UniProt P62805). Kind of assay: MBP-SSX1 78aa pull-down, targeted histone MS.
Assay [38] deals with TSP1_HUMAN Thrombospondin-1 (human) (UniProt P07996). Kind of assay: anti-SMARCA4 (BRG1) IP, mass spectrometry, human fibroblasts.
In assay [39] the target is KCNMA1 (tr|A0A1W2PP06|A0A1W2PP06_HUMAN) (human) (UniProt Q12791). Kind of assay: HA affinity purification from HEK-293T nuclear extract, mass spectrometry peptide counts.
In assay [40] the target is LPGAT1 (sp|Q92604|LGAT1_HUMAN) (human) (UniProt Q92604). Described as above.
The target of assay [41] is LZIC (sp|Q8WZA0|LZIC_HUMAN) (human) (UniProt Q8WZA0). The assay is described as above.
Assay [42] has as its target cellular chromatin (endogenous nucleosomes; core histones H2A, H2B, H3, H4) (human) (UniProt P0C0S8). Kind of assay: cell-based or functional assay.
Assay [43] has as its target mammalian mononucleosome (HEK293T) carrying histone H3 K79me1 (human (HEK-293T cells)) (UniProt P68431). Kind of assay: MBP-SSX1 78aa pull-down of pooled HEK293T mononucleosomes, targeted quantitative histone MS; input c3-c5: 0.268, 0.441, 0.301.
In assay [44] the target is mammalian mononucleosome (HEK293T) carrying histone H3 K79me2 (human (HEK-293T cells)) (UniProt P68431). Kind of assay: MBP-SSX1 78aa pull-down of pooled HEK293T mononucleosomes, targeted quantitative histone MS; input c3-c5: 0.498, 0.469, 0.455.
The target in assay [45] is recombinant H2A K119Ub mononucleosomes (UniProt P04908). Kind of assay: AlphaLISA; 95% CI 7.2-48.5.

Consider “wild-type SS18-bound BAF complexes (HA-SS18 WT purification) (from UniProt Q15532 1-387)”, for which the NaCl concentration of elution from chromatin in assay [1] is 300 to 500 mM.

As usually defined, the EC50 is the concentration that produces a half-maximal response. As to “GST-SSX1 (78aa) (from UniProt Q16384 111-188)”, the EC50 in assay [2] is 4.6 nM; in [3], 22.1 nM.

For “MBP-SSX1 78aa protein (from UniProt Q16384 111-188)”, the log2norm (Light/Heavy) intensity ratio was 0.032 log2 and -0.047 log2 in assay [4]; 0.042 log2 and -0.086 log2 in assay [5]; 0.201 log2 and -0.12 log2 in [6]; 0.569 log2 and 0.624 log2 in assay [7]; -0.031 log2 and -0.049 log2 in assay [8]; -0.254 log2 and -0.375 log2 in [9]. In addition, the log2norm (Light/Heavy) intensity ratio in assay [10] was -0.026 log2 and 0.061 log2; in assay [11], -0.217 log2 and 0.048 log2; in assay [12] it was -0.784 log2 and -0.697 log2; in [13], 0.273 log2 and 0.323 log2; in assay [14], 0.263 log2 and 0.32 log2; in assay [15], 0.74 log2 and 0.353 log2. Also, the log2norm (Light/Heavy) intensity ratio is 0.778 log2 and 0.532 log2 in assay [16]; 0.766 log2 and 0.505 log2 in assay [17]; -2.67 log2 and -2.51 log2 in [18]; -0.683 log2 and -1.09 log2 in [19]; -0.87 log2 and -1.01 log2 in assay [20]; -0.566 log2 and -1.03 log2 in [21]. The log2norm (Light/Heavy) intensity ratio in [22] is 0.017 log2 and 0.092 log2; in assay [23] it was -0.427 log2 and -0.443 log2; in assay [24], -0.414 log2 and -0.391 log2; in assay [25], -0.109 log2 and 0.055 log2; in [26], 0.204 log2 and 0.304 log2; in [27] it was -0.207 log2 and -0.275 log2. The log2norm (Light/Heavy) intensity ratio in assay [28] is -0.391 log2 and -0.337 log2; in [29], 0.226 log2 and 0.367 log2; in assay [30] it was 0.276 log2 and 0.245 log2; in assay [31] it was -0.223 log2 and -0.27 log2; in [32], 0.474 log2 and 0.311 log2; in assay [33], 0.107 log2 and 0.094 log2. The log2norm (Light/Heavy) intensity ratio in [34] is -0.053 log2 and 0.075 log2; in assay [35], 0.677 log2 and 0.625 log2; in assay [36], -0.198 log2 and -0.093 log2; in [37] it was -0.613 log2 and -0.573 log2.

For “SMCA4_HUMAN Transcription activator BRG1 (from UniProt P51532 1-1647)”, in [38], the NSAF is 0.000217.

For HA-SS18 WT (from UniProt Q15532 1-387), the Total peptides in [39], in assay [40] and in [41] was 1 peptides in each case. Moreover, the Unique peptides in assay [39], in assay [40] and in [41] was 1 peptides each time.

Turning to GFP-SS18 WT (from UniProt Q15532 2-418), the FRAP recovery half-time in [42] worked out at 10.1 s.

In the case of “MBP-SSX1 78aa (from UniProt Q16384 111-188)”, the log2norm (Light/Heavy) intensity ratio normalized to histone norm peptide was 0.954 log2 and 0.54 log2 in assay [43]; 0.826 log2 and 0.557 log2 in assay [44].

In turn, GFP-SS18-SSX1 yielded an FRAP recovery half-time in assay [42] of 33.9 s.

In the case of “SS18-SSX-bound BAF complexes (HA-SS18-SSX1 purification)”, the NaCl concentration of elution from chromatin in assay [1] was more than 1000 mM.

Consider “GST-SSXdel7aa (acidic C-term DPEEDDE-->AAAAAAA) (from UniProt Q16384 111-181)”, for which, in [45], the EC50 came to 18.7 nM.
